Where a chain is given by its changes, count along the chain named.
Legend:
Test in all cases: mass photometry; Refeyn OneMP; purified complexes diluted in 20 mM MES pH 6.5, 150 mM NaCl to around 25 nM
Conditions in all cases: both partners purified
[1] = molecular target: T1, Chondroitin Sulfate Synthase-3 (CHSY3), secreted N-terminally truncated construct aa157-aa882 (human, UniProt Q70JA7 157-882)
T1 construct: CHSY3, human, UniProt Q70JA7, residues 157-882 (membrane-spanning helix removed); Construct in pHR-CMV-TetO2 with an N-terminal chicken RPTP sigma signal peptide, SUMO, 6x His and a 3C site; no cleavage site before the C-terminal Avi tag; source: Freestyle 293-F cells, co-transfected, secreted; purified from the supernatant (HisTrap, 3C protease, second HisTrap); not shown: SUMO, N-terminal, …
T1 sequence (looked up): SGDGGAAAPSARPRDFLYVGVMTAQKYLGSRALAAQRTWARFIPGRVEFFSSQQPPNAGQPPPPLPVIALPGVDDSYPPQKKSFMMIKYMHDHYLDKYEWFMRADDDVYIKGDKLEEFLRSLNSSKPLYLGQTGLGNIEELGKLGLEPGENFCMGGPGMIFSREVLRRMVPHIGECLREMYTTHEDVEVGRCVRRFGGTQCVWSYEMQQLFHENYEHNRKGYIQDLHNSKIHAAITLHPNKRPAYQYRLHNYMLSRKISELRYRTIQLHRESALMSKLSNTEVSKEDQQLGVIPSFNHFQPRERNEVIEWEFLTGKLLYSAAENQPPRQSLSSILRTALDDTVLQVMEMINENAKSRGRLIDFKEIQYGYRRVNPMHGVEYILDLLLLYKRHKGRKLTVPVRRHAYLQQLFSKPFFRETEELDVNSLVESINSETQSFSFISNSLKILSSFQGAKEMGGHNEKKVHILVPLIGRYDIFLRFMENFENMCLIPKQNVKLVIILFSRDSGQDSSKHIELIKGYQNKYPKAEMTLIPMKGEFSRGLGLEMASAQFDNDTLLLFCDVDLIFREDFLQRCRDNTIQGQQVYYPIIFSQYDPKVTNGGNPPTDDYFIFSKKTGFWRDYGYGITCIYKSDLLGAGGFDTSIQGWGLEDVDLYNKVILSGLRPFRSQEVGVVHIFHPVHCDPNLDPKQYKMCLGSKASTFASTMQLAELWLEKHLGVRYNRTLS

[2] = molecular target: T2, CHSY3^D261N/D263N, secreted construct aa157-aa882 (human, UniProt Q70JA7 157-882, D261N | D263N)
T2 construct: CHSY3, human, UniProt Q70JA7, residues 157-882, mutations in the DxD motif of the N-terminal GT domain; source: Freestyle 293-F cells, co-transfected with CHPF, secreted; purified by the same protocol as the wild-type complexes; not shown: SUMO, N-terminal, cleaved; His6, N-terminal, cleaved
T2 sequence (looked up): T1 sequence (looked up) with D105N, D107N

[3] = molecular target: T3, CHSY3^H394A, secreted construct aa157-aa882 (human, UniProt Q70JA7 157-882, H394A)
T3 construct: CHSY3, human, UniProt Q70JA7, residues 157-882, mutation in the N-terminal GT domain; source: Freestyle 293-F cells, co-transfected with CHPF, secreted; purified by the same protocol as the wild-type complexes; not shown: SUMO, N-terminal, cleaved; His6, N-terminal, cleaved
T3 sequence (looked up): T1 sequence (looked up) with H238A

Measured: binding result

B1: Chondroitin Polymerizing Factor (CHPF), secreted N-terminally truncated construct aa81-aa775 (domain or fragment, human, UniProt Q8IZ52 81-775, looked up)
chain: GENWEPRVLPYHPAQPGQAAKKAVRTRYISTELGIRQRLLVAVLTSQTTLPTLGVAVNRTLGHRLERVVFLTGARGRRAPPGMAVVTLGEERPIGHLHLALRHLLEQHGDDFDWFFLVPDTTYTEAHGLARLTGHLSLASAAHLYLGRPQDFIGGEPTPGRYCHGGFGVLLSRMLLQQLRPHLEGCRNDIVSARPDEWLGRCILDATGVGCTGDHEGVHYSHLELSPGEPVQEGDPHFRSALTAHPVRDPVHMYQLHKAFARAELERTYQEIQELQWEIQNTSHLAVDGDQAAAWPVGIPAPSRPASRFEVLRWDYFTEQHAFSCADGSPRCPLRGADRADVADVLGTALEELNRRYHPALRLQKQQLVNGYRRFDPARGMEYTLDLQLEALTPQGGRRPLTRRVQLLRPLSRVEILPVPYVTEASRLTVLLPLAAAERDLAPGFLEAFATAALEPGDAAAALTLLLLYEPRQAQRVAHADVFAPVKAHVAELERRFPGARVPWLSVQTAAPSPLRLMDLLSKKHPLDTLFLLAGPDTVLTPDFLNRCRMHAISGWQAFFPMHFQAFHPAVAPPQGPGPPELGRDTGRFDRQAASEACFYNSDYVAARGRLAAASEQEEELLESLDVYELFLHFSSLHVLRAVEPALLQRYRAQTCSARLSEDLYHRCLQSVLEGLGSRTQLAMLLFEQEQGNST
notes: CHPF, human, UniProt Q8IZ52, residues 81-775 (membrane-spanning helix removed); Construct in pHR-CMV-TetO2 with an N-terminal chicken RPTP sigma signal peptide, SUMO, 6x His and a 3C site; a second 3C site stands before the C-terminal twin streptavidin tag; also called Chondroitin sulfate synthase 2; source: Freestyle 293-F cells, co-transfected, secreted; purified from the supernatant (HisTrap, …)
binds: [1] | [2] | [3]

From publication PMC12748766, “Structural basis for human chondroitin sulfate chain polymerization” (Nature Communications, 2025)
